The values below come from patent US20240117018A1.

Holding throughout (experiment): cell-based or functional assay
Assay [1] addresses HIV-1 Env of pseudovirus 263-8 (HIV-1).
The target in assay [2] is HIV-1 Env of pseudovirus 191084 B7-19 (HIV-1).
In assay [3] the target is HIV-1 Env of pseudovirus T257-31 (HIV-1).
Assay [4] addresses HIV-1 Env of pseudovirus 928-28 (HIV-1).
Assay [5] addresses HIV-1 Env of pseudovirus 9004SS_A3_4 (HIV-1).
Assay [6] deals with HIV-1 Env of pseudovirus 191955_A11 (HIV-1).
For assay [7], the target named is HIV-1 Env of pseudovirus C4118.c09 (HIV-1).
Assay [8] deals with HIV-1 Env of pseudovirus 620345.c01 (HIV-1).
The target in assay [9] is HIV-1 Env of pseudovirus BJOX028000.10.3 (HIV-1).
Assay [10] addresses HIV-1 Env of pseudovirus C3347.c11 (HIV-1).
Assay [11] addresses HIV-1 Env of pseudovirus 6540.v4.c1 (HIV-1).
Assay [12] concerns the target HIV-1 Env of pseudovirus 6545.v4.c1 (HIV-1).
Assay [13] has as its target HIV-1 Env of pseudovirus 3016.v5.c45 (HIV-1).
In assay [14] the target is HIV-1 Env of pseudovirus X2131_C1_B5 (HIV-1).
In assay [15] the target is HIV-1 Env of pseudovirus T278-50 (HIV-1).
Assay [16] addresses HIV-1 Env of pseudovirus 211-9 (HIV-1).
The target in assay [17] is HIV-1 Env of pseudovirus P1981_C5_3 (HIV-1).
Assay [18] deals with HIV-1 Env of pseudovirus R1166.c01 (HIV-1).
Assay [19] concerns the target HIV-1 Env of pseudovirus 3301.v1.c24 (HIV-1).
Assay [20] concerns the target HIV-1 Env of pseudovirus A07412M1.vrc12 (HIV-1).
Assay [21] addresses HIV-1 Env of pseudovirus BJOX015000.11.5 (HIV-1).
In assay [22] the target is HIV-1 Env of pseudovirus 6952.v1.c20 (HIV-1).
Assay [23] addresses HIV-1 Env of pseudovirus 235-47 (HIV-1).
The target in assay [24] is HIV-1 Env of pseudovirus BJOX025000.01.1 (HIV-1).
Assay [25] concerns the target HIV-1 Env of pseudovirus 3103.v3.c10 (HIV-1).
For assay [26], the target named is HIV-1 Env of pseudovirus 0815.v3.c3 (HIV-1).
In assay [27] the target is HIV-1 Env of pseudovirus 231965.c01 (HIV-1).
Assay [28] deals with HIV-1 Env of pseudovirus 231966.c02 (HIV-1).
In assay [29] the target is HIV-1 Env of pseudovirus X1254_c3 (HIV-1).
The target in assay [30] is HIV-1 Env of pseudovirus BJOX009000.02.4 (HIV-1).
For assay [31], the target named is HIV-1 Env of pseudovirus 6041.v3.c23 (HIV-1).
Assay [32] concerns the target HIV-1 Env of pseudovirus R2184.c04 (HIV-1).
Assay [33] concerns the target HIV-1 Env of pseudovirus P0402_c2_11 (HIV-1).
In assay [34] the target is HIV-1 Env of pseudovirus T255-34 (HIV-1).
Assay [35] addresses HIV-1 Env of pseudovirus R3265.c06 (HIV-1).

For the substance 3BNC117 (antibody), the half-maximal inhibitory concentration (IC50) – broadly, the point on the concentration scale where inhibition reaches its midpoint – in [1] is 0.005 µg/mL; in [2] it was 0.07 µg/mL; in assay [3] it was 0.06 µg/mL; in assay [4] it was 0.15 µg/mL; in assay [5], 0.07 µg/mL; in [6], above 50 µg/mL. Besides, the IC80 (commonly the concentration at which the effect reaches the 80% level) is 0.04 µg/mL in assay [1]; 0.23 µg/mL in [2]; 0.37 µg/mL in [3]; 0.55 µg/mL in assay [4]; 0.18 µg/mL in assay [5]; above 50 µg/mL in [6].

8ANC195 (antibody): the IC50 in [1] is above 50 µg/mL; in [2], above 50 µg/mL; in [3] it was 0.32 µg/mL; in assay [4] it was above 50 µg/mL; in assay [5], 0.17 µg/mL; in assay [6], above 50 µg/mL. Further, the IC80 was above 50 µg/mL in [1]; above 50 µg/mL in assay [2]; 3.89 µg/mL in assay [3]; above 50 µg/mL in assay [4]; 0.81 µg/mL in assay [5]; above 50 µg/mL in assay [6].

Take NIH 45-46 (antibody): the half-inhibitory concentration (IC50) turned out to be 0.05 µg/mL in assay [1]; 0.02 µg/mL in assay [2]; 0.23 µg/mL in [3]; 0.1 µg/mL in assay [4]; 0.18 µg/mL in assay [5]; 0.11 µg/mL in assay [6]. For the same substance, the IC80 in assay [1] is 0.1 µg/mL; in assay [2] it was 0.07 µg/mL; in [3] it was 1.11 µg/mL; in [4], 0.39 µg/mL; in assay [5], 0.65 µg/mL; in assay [6], 0.43 µg/mL.

As to PGT151 (antibody), the IC50 (Titer in TZM.bl cells) in [7] was above 50 µg/mL; in assay [8], above 50 µg/mL; in [9] it was above 50 µg/mL; in assay [10] it was above 50 µg/mL; in assay [11], 0.006 µg/mL; in assay [12] it was 0.004 µg/mL. In addition, the IC50 (Titer in TZM.bl cells) is 0.174 µg/mL in assay [13]; 0.007 µg/mL in assay [14]; 0.13 µg/mL in assay [15]; 0.002 µg/mL in [16]; 0.021 µg/mL in assay [17]; above 50 µg/mL in assay [18]. Further, the IC50 (Titer in TZM.bl cells) in assay [19] was 0.002 µg/mL; in [20], 0.246 µg/mL; in assay [21], above 50 µg/mL; in assay [22], 49.2 µg/mL; in assay [23] it was 38.1 µg/mL; in assay [24], above 50 µg/mL. For the same substance, the IC50 (Titer in TZM.bl cells) in [25] is 0.014 µg/mL; in assay [26], above 50 µg/mL; in assay [27], below 0.001 µg/mL; in assay [28], 0.025 µg/mL; in [29], 0.309 µg/mL; in assay [30], above 50 µg/mL. Also, the IC50 (Titer in TZM.bl cells) is 0.004 µg/mL in assay [31]; above 50 µg/mL in assay [32]; below 0.001 µg/mL in [33]; 0.002 µg/mL in assay [34]; above 50 µg/mL in assay [35]. For the same substance, the IC80 (Titer in TZM.bl cells) in [7] is above 50 µg/mL; in [8], above 50 µg/mL; in [9], above 50 µg/mL; in assay [10], above 50 µg/mL; in assay [11] it was 0.03 µg/mL; in assay [12], 0.026 µg/mL. The IC80 (Titer in TZM.bl cells) was 40.7 µg/mL in assay [13]; 0.036 µg/mL in [14]; above 50 µg/mL in assay [15]; 0.01 µg/mL in [16]; above 50 µg/mL in [17]; above 50 µg/mL in assay [18]. For the same substance, the IC80 (Titer in TZM.bl cells) in assay [19] was 0.019 µg/mL; in [20], above 50 µg/mL; in assay [21] it was above 50 µg/mL; in [22] it was above 50 µg/mL; in [23] it was above 50 µg/mL; in assay [24], above 50 µg/mL. The IC80 (Titer in TZM.bl cells) was 0.202 µg/mL in assay [25]; above 50 µg/mL in assay [26]; 0.012 µg/mL in [27]; 0.183 µg/mL in [28]; above 50 µg/mL in assay [29]; above 50 µg/mL in assay [30]. Moreover, the IC80 (Titer in TZM.bl cells) in [31] was 0.024 µg/mL; in [32], above 50 µg/mL; in assay [33], 0.004 µg/mL; in assay [34] it was 0.01 µg/mL; in [35], above 50 µg/mL. Also, the neutralization IC50 in assay [1] is above 50 µg/mL; in [2], 0.004 µg/mL; in assay [3], 0.003 µg/mL; in assay [4], above 50 µg/mL; in assay [5], 0.003 µg/mL; in assay [6], 0.004 µg/mL. For the same substance, the neutralization IC80 in [1] is above 50 µg/mL; in assay [2] it was 0.016 µg/mL; in assay [3], 0.01 µg/mL; in assay [4] it was above 50 µg/mL; in assay [5], 0.015 µg/mL; in assay [6] it was 0.014 µg/mL.

VRC07 (antibody): the IC50 amounted to 0.103 µg/mL in assay [1]; 0.061 µg/mL in [2]; 0.421 µg/mL in assay [3]; 0.278 µg/mL in assay [4]; 0.218 µg/mL in [5]; 0.978 µg/mL in assay [6]. For the same substance, the concentration for an effect of 80% (IC80) in [1] worked out at 0.282 µg/mL; in assay [2] it was 0.209 µg/mL; in assay [3], 3.17 µg/mL; in assay [4], 0.957 µg/mL; in [5] it was 0.75 µg/mL; in assay [6], 4.82 µg/mL.
